Assay results as given in patent publication US20210347914A1 (BANYAN BIOMARKERS, published 2021).
Substitutions are numbered along the chain they refer to.

Legend:
[1] = target: T1, Polyhistidine-tagged recombinant human UCH-L1 expressed from E. coli (human, UniProt P09936 1-223, limits assumed); assay: BLI (Octet QKe); His-tagged UCH-L1 on anti-Penta-HIS sensor, antibody in solution
T1 construct: also called UCH-L1-His; not shown: polyhistidine tag
Procedure: (§1) The rates of association (kₒₙ) and dissociation (koff) of the anti-UCH-L1 antibodies were determined by bio-layer interferometry using an Octet QK^e instrument according to the manufacturer's instructions (ForteBio). See Tobias et al., Biomolecular Binding Kinetic Assays in the Octet Platform, Application Note 14, ForteBio, Div. of Pall Life Sciences, 2013. Polyhistidine-tagged recombinant human UCH-L1 expressed from E. coli was used as the antigen. The antigen was bound at a concentration of 8.3 pg/ml to an anti-Penta-HIS(HIS1K) capture biosensor containing an anti-histidine antibody (ForteBio) for use with the Octet QK^e instrument.

[2] = target: T2, Polyhistidine-tagged recombinant human GFAP expressed from E. coli (human, UniProt P14136 1-432); assay: BLI (Octet QKe); His-tagged GFAP on anti-Penta-HIS sensor, antibody in solution
T2 construct: also called His-tagged GFAP; not shown: polyhistidine tag
Procedure: as §1, with “anti-GFAP” for “anti-UCH-L1”, “GFAP” for “UCH-L1”, “μg/ml” for “pg/ml”

T1 sequence (P09936 whole entry): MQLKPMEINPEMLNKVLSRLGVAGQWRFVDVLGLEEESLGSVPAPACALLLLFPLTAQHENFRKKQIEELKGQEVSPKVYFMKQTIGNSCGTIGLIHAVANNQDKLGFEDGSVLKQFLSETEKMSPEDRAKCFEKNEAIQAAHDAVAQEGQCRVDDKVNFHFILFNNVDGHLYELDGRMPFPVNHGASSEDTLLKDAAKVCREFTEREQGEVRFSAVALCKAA
T2 sequence (P14136 whole entry): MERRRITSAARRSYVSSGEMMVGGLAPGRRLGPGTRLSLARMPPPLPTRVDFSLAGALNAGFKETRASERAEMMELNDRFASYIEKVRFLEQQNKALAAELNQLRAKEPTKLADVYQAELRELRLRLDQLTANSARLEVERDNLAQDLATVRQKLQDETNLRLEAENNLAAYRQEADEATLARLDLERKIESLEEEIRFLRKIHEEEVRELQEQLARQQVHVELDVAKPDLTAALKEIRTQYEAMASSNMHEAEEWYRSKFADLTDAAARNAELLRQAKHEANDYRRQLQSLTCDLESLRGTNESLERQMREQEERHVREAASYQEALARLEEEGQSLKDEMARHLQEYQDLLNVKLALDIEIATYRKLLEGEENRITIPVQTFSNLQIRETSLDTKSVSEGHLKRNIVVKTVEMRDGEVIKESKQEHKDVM

B1: UCH-L1-4 (antibody, V domains shown)
VH: AVQLQQSGPELVKPGASVKISCKTSGDTFTEHFMNWVKQSHGESLEWIGIINPYTDGTNYDQKFKDKATLTVDKSSSTAYMELRSLTSEDSAVYYCARWGGDGEGYWGQGTTLTVSS
VL: DIVMTQAAPSVSVTPGESVSISCRSSKSLLHSNGNTYLYWFLKRPGQSPQLLIYRMSNLASGVPDRVSGSGSGTAFTLRISRVEAEDVGIYYCMQHLEYPLTFGAGTKLELK
notes: also called mouse anti-UCH-L1 antibody UCH-L1-4
B1 showed a Kd [1] of 36.9 pM, a koff [1] of 1.4e-05 s⁻¹ and a kon [1] of 378000 M⁻¹ s⁻¹.

B2: UCH-L1-5 (antibody, V domains shown)
VH: EVKLVESGGGSVQPGGSLSLSCAASGFTFTEYYMSWVRQFPGKALEWLAFIRNRAHGYTTEYSASVKGRFTISRDNSQSILYLQMNALRTEDSATYYCASSYGAPFAYWGQGTLVSVSA
VL: B1 VL with S12P, N33D, K43Q, V67F, I90V
notes: also called mouse anti-UCH-L1 antibody UCH-L1-5; HRP-labeled anti-UCH-L1 detection antibody
B2 was tested, and the Kd [1] was under 1 pM, the koff [1] was 1e-07 s⁻¹ and the kon [1] was 459000 M⁻¹ s⁻¹.

B3: GFAP-10 (antibody, V domains shown)
VH: EVKLVESGGGLVKPGGSLKLSCAASGFTFSYYAMSWVRQTPEKRLEWVASISSGGTTYHPDSVKGRFTISRDNARNILYLQMSSLRSEDTAMYYCARGGHWYFDVWGAGTTVTVSS
VL: QIVLTQSPAIMSASPGEKVTMTCSASSSVSYMHWYQQKSGTSPKRWIYDTSKLASGVPARFSGSGSGTSYSLTISSMEAEDAATYYCQQWSTNPLTFGAGTKLDLK
notes: also called mouse anti-GFAP antibody GFAP-10
B3 was tested, and the Kd [2] was under 1 pM, the koff [2] was 1e-07 s⁻¹ and the kon [2] was 53300 M⁻¹ s⁻¹.

B4: GFAP-6 (antibody, V domains shown)
VH: EVQLQQSGAEFVKPGASVKLSCTASGFNIKDTDMHWVRQRPEQGLESIGLIDPAIGNTKYDPKFQGKATITADTSSNAAYLQLSSLTSEDTAVYYCARSDRYLAWFAYWGQGTLVTVSA
VL: DIVMTQSPATLSVTPGDRVSLSCRASQSISDFLHWYQQKSHGSPRLLIKYSSQSISGIPSRFSGSGSGSDFTLSINSVEPEDVGVYYCQNGHTFPYTFGGGTKLEIK
notes: also called mouse anti-GFAP antibody GFAP-6; HRP-labeled anti-GFAP antibody
Work on B4 yielded a Kd [2] of 1070 pM, a koff [2] of 0.000124 s⁻¹ and a kon [2] of 116000 M⁻¹ s⁻¹.

B5: GFAP-8 (antibody, V domains shown)
VH: EVQLLQSGTVLARPGASVKMSCKASGYSFTSYWMHWIKQRPGQGLEWIGAIHPGNRDTSYNQKFKDKAKLTAVTSASTAYMELSSLTNEDSAVYFCTREDYWGQGTTLTVSS
VL: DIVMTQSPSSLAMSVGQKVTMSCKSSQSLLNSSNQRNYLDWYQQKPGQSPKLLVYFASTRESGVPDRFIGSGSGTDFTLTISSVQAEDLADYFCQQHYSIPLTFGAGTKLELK
notes: Same variable domains as GFAP-7; also called mouse anti-GFAP antibody GFAP-8
In the case of B5, the Kd [2] is reported as 1110 pM, the koff [2] is reported as 0.000133 s⁻¹ and the kon [2] is reported as 120000 M⁻¹ s⁻¹.

B6: UCH-L1-1 (antibody, V domains shown)
VH: QVQLQQPGSELVRPGASVKLSCKASGYTFTSYWMHWVKQRPGQGLEWIGNIYPGSGSTNYDEKFKSKATLTVDTSSSTAYMQLSSLTSEDSAVYYCTREDYWGQGTTLTVSS
VL: DVLMTQTPLSLPVSLGDQASISCRSSQNIVHSNGNTYLEWYLQKPGQSPKLLIYKVSNRFSGVPDRFSGSGSGTDFTLKISRVEAEDLGVYYCFQGSHVPFTFGSGTKLEIK
notes: also called mouse anti-UCH-L1 antibody UCH-L1-1
For B6, the Kd [1] was under 1 pM, the koff [1] was under 1e-07 s⁻¹ and the kon [1] was 58800 M⁻¹ s⁻¹.

B7: UCH-L1-3 (antibody, V domains shown)
VH: B6 VH with K23R, M34I, P41H, S57I, S66T, A68G, A79V, Q82H, S84I
VL: B6 VL with N28S, R82G, A85T, S105G
notes: also called mouse anti-UCH-L1 antibody UCH-L1-3
With B7 the Kd [1] was 367 pM, the koff [1] was 1.34e-05 s⁻¹ and the kon [1] was 36400 M⁻¹ s⁻¹.

B8: UCH-L1-7 (antibody, V domains shown)
VH: EVQLQQSGPELVKPGASVKISCKTSGYTFTEYTMHWVKQSHGKSLDWIGGINPNNGRTSYNQKFKGKATLTVDKSSSTAYMELRSLTSEDSAVYYCARRLGRGFYFDYWGQGTTLTVSS
VL: DIVLTQSPASLAVSLGQRATISCRASESVDSYGNNLMHWYQQKPGQPPKLLIYLSSNLESGIPARFSGRGSRTDFTLTINPVEADDVATYYCQQSNGDPYTFGGGTKLEIK
notes: also called mouse anti-UCH-L1 antibody UCH-L1-7
Work on B8 yielded a Kd [1] of 18.7 pM, a koff [1] of 2.5e-06 s⁻¹ and a kon [1] of 133000 M⁻¹ s⁻¹.

B9: UCH-L1-9 (antibody, V domains shown)
VH: B8 VH with A92T
VL: B8 VL with L36F, I110M
notes: also called mouse anti-UCH-L1 antibody UCH-L1-9
B9 gave a Kd [1] of 85.7 pM, a koff [1] of 1.01e-05 s⁻¹ and a kon [1] of 118000 M⁻¹ s⁻¹.

B10: UCH-L1-10 (antibody, V domains shown)
VH: B8 VH with E10D, A16T, K43R, D46E, I51F, A97S, G101Y
VL: B8 VL with P47S, L54R, S55A, A64G, T76S
notes: also called mouse anti-UCH-L1 antibody UCH-L1-10
With B10 the Kd [1] was 43 pM, the koff [1] was 4.6e-06 s⁻¹ and the kon [1] was 107000 M⁻¹ s⁻¹.

B11: UCH-L1-8 (antibody, V domains shown)
VH: B8 VH with E10D, A16T, K43R, D46E, I51L, T78I
VL: B8 VL with P47S, L54R, S55A, A64G
notes: also called mouse anti-UCH-L1 antibody UCH-L1-8
Work on B11 yielded a Kd [1] of 47.4 pM, a koff [1] of 6.7e-06 s⁻¹ and a kon [1] of 141000 M⁻¹ s⁻¹.

B12: UCH-L1-6 (antibody, V domains shown)
VH: B8 VH with E82D, L83F
VL: B8 VL with D30E, M37I, P44L, S60P, K111R
notes: also called mouse anti-UCH-L1 antibody UCH-L1-6
For B12, the Kd [1] was under 1 pM, the koff [1] was 1e-07 s⁻¹ and the kon [1] was 145000 M⁻¹ s⁻¹.

B13: GFAP-9 (antibody, V domains shown)
VH: DVQLQESGPGLVKPSQSLSLTCSVTGYSITSGFYWSWIRQFPGNKLEWMGYISYDGSNNYNPSLKNRISITRDTSKNQFFLKLNSVTTEDTATYYCARAYGYDGAWFAYWGQGTLVTVSA
VL: DIVMTQSQKFMSTSVGDRVSITCKASQNVRTAVAWYQQKPGQSPKALIYLASNRHTGVPDRFTGSGSGTDFTLTISNVQSEDLADYFCLQHWNNPYTFGGGTKLEIK
notes: also called mouse anti-GFAP antibody GFAP-9
With B13 the Kd [2] was 18000 pM, the koff [2] was 0.000701 s⁻¹ and the kon [2] was 39000 M⁻¹ s⁻¹.

B14: UCH-L1-2 (antibody, V domains shown)
VH: EVMLVESGGGLVKPGGSLKLSCAASGFIFSSHAMSWIRQIPEKRLEWVATISSGGSNTYYPDSVKGRFTISRDNAKNILYLQMSSLRSEDTAIYYCTRHGEVRRGYYFDYWGQGTTLTVSS
VL: DIQMTQTPSSLSASLGDRVTISCSASQGITNYLNWYQQKPDGTVKLLIYYTSSLHSGVPSRFSGSGSGTDYSLTISNLEPEDFATYYCQHYSNLPWTFGGGTKLEIK
notes: also called mouse anti-UCH-L1 antibody UCH-L1-2
In the case of B14, the Kd [1] is reported as 207 pM, the koff [1] is reported as 3.01e-05 s⁻¹ and the kon [1] is reported as 146000 M⁻¹ s⁻¹.
